# Assay results as given in PMC4856222.
# Where two headings read alike, the source gives them in different places.
# What was measured:
# [1] = target: NKG2D (Homo sapiens) (UniProt P26718); details: cited from earlier work
# [2] = target: NKG2D (Homo sapiens) (UniProt P26718); details: cited from earlier work; remark: listed apart in the source
# [3] = target: NKG2D (in the affinity measurement) (UniProt O54709)
# UniProt O54709, sequence (O54709 whole entry): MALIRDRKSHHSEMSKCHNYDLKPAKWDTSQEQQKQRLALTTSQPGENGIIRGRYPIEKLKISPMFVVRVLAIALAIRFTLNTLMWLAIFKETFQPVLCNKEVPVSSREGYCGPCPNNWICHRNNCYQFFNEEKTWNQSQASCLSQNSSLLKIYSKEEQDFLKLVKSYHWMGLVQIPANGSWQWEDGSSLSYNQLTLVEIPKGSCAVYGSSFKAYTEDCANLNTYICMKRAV
# UniProt P26718, sequence (P26718 whole entry): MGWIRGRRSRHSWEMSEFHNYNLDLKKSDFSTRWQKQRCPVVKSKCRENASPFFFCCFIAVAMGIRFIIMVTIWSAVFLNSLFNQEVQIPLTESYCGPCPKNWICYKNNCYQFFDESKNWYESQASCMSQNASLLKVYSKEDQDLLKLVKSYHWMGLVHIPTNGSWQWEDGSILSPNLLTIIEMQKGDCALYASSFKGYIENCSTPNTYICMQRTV
Kd [3] [nM],Substance,further results
,MICA (from UniProt Q29983),Kd [1]: 1000 nM
,MICB (from UniProt Q29980),Kd [2]: 1000 nM
19,secMULT1 (secreted ectodomain fragment of HA-MULT1) (domain or fragment),
13,shed HA-MULT1 (domain or fragment),
